Laboratory results reported in patent US20050182242A1, “Global analysis of protein activities using proteome chips” (priority 2001, published 2005).
Blank lines part the entries; values can stand above or below the molecule they belong to.

Biological target: T1, calmodulin (Homo sapiens, UniProt P0DP23)
T1 construct: purchased CalBiochem, USA
Test: Yeast proteome chip probed with biotinylated calmodulin
Format: binding
Conditions: biotinylated calmodulin in the presence of calcium
Description: To test for protein-protein interactions, the yeast proteome was probed with calmodulin (11). Calmodulin is a highly conserved calcium-binding protein involved in many calcium-regulated cellular processes and has many known physical partners (Hook et al., 2001, Annu. Rev. Pharmacol. Toxicol. 41:471). The calmodulin probe was biotinylated, and bound probe was detected using Cy3-labeled streptavidin. As a control, the yeast proteome was probed with Cy3-labeled streptavidin alone.
Generally, protein-protein interactions can be assayed as follows. Blocked proteome chips are washed three to five times in PBS buffer, and the extra liquid on the glass surface is removed by tapping the slides vertically on a KIMWIPE™. 200 ∞l of biotinylated protein probe is added to the proteome chip and immediately covered by a hydrophobic plastic cover slip (GRACE BIO-LABS™, USA). After trapped air bubbles are removed, the chip is incubated in a humidity chamber at room temperature (RT) for one hour. To remove the cover slip, the chip is immersed into large volume of PBS buffer (>50 ml), and the slip should float away. The chip is then moved to a second PBS bath (>50 ml) and washed 3×5 min with shaking at RT. After removing extra liquid on the surface of the chip, at least 150 μl of Cy3- or Cy5-conjugated streptavidin (PIERCE™, USA; 1:2000 to 1:4000 dilution) is added to the surface and covered by a hydrophobic plastic cover slip (GRACE BIO-LABS™, USA). The chip is incubated for greater than 30 min in the dark at RT. The chip is then washed as described above. To completely remove the liquid on the chip, the chip is spun to dryness at 1500-2000 rpm for 5-10 min at RT.
• 1. S. Fields, Y. Kohara, D. J. Lockhart, Proc. Natl. Acad. Sci. 96, 8825 (1999); A. Goffeau et al., Science 274, 563 (1996). • 2 P. Ross-Macdonald et al., Nature 402, 413 (1999); J. L., DeRisi, V. R. Iyer, P. O. Brown, Science 278, 680 (1997); E. A. Winzeler et al., Science 285, 901 (1999). P. Uetz et al., Nature 403, 623 (2000); T. Ito et al., Proc. Natl. Acad. Sci. USA. 97, 1143 (2000) • 3 H. Zhu, M. Snyder, Curr. Opin. Chem. Biol. 5, 40 (2001). • 4 M. R. Martzen et al., Science 286, 1153 (1999). • 5 H. Zhu et al., Nat. Genet. 26, 283 (2000). • 6 G. MacBeath, S. L. Schreiber, Science 289, 1760 (2000). • 7 A. Caveman, J. Cell Sci. 113, 3543 (2000). • 8 P. Arenkov et al., Anal. Biochem 278, 123 (2000). • 9 D. A. Mitchell, T. K. Marshall, R. J. Deschenes, Yeast 9, 715 (1993). The expression vector pEGH was created by inserting an RGS-HisX6 epitope tag between the GST gene and the polycloning site of pEG(KG). The yeast ORFs were cloned using the strategy described previously (5), except every step was done in a 96-well format. Plasmid DNAs confirmed by DNA sequencing were reintroduced into both yeast (Y258) and E. coli (DH5a). […] 0.1 mM calcium was present in buffers in all subsequent steps. The chip was washed three times with PBS at RT. Cy3-conjugated streptavidin (Jackson IR, USA) (1:5000 dilution) was added to the chip and incubated for 30 min at RT. After extensive washing, the chip was spun dry and scanned using a microarray scanner; the data was subsequently acquired with the GENEPIX™ array densitometry software (Axon, USA). • 12 S. S. Hook, A. R. Means, Annu. Rev. […]

calmodulin binding: identified
B1: Cmp2p: one of the two yeast calcineurins (protein)
chain: MSSDAIRNTEQINAAIKIIENKTERPQSSTTPIDSKASTVAAANSTATETSRDLTQYTLDDGRVVSTNRRIMNKVPAITSHVPTDEELFQPNGIPRHEFLRDHFKREGKLSAAQAARIVTLATELFSKEPNLISVPAPITVCGDIHGQYFDLLKLFEVGGDPATTSYLFLGDYVDRGSFSFECLIYLYSLKLNFNDHFWLLRGNHECKHLTSYFTFKNEMLHKYNLDIYEKCCESFNNLPLAALMNGQYLCVHGGISPELNSLQDINNLNRFREIPSHGLMCDLLWADPIEEYDEVLDKDLTEEDIVNSKTMVPHHGKMAPSRDMFVPNSVRGCSYAFTYRAACHFLQETGLLSIIRAHEAQDAGYRMYKNTKTLGFPSLLTLFSAPNYLDTYNNKAAILKYENNVMNIRQFNMTPHPYWLPDFMDVFTWSLPFVGEKVTEMLVAILNICTEDELENDTPVIEELVGTDKKLPQAGKSEATPQPATSASPKHASILDDEHRRKALRNKILAVAKVSRMYSVLREETNKVQFLKDHNSGVLPRGALSNGVKGLDEALSTFERARKHDLINEKLPPSLDELKNENKKYYEKVWQKVHEHDAKNDSK
modifications: left off: a dimerising Fc or GST
notes: one of the two yeast calcineurins

calmodulin binding: identified
B2: Dst1p: yeast protein with a role in transcription elongation (protein, UniProt P07273 1-309, looked up)
Transcription elongation …: MDSKEVLVHVKNLEKNKSNDAAVLEILHVLDKEFVPTEKLLRETKVGVEVNKFKKSTNVEISKLVKKMISSWKDAINKNKRSRQAQQHHQDHAPGNAEDKTTVGESVNGVQQPASSQSDAMKQDKYVSTKPRNSKNDGVDTAIYHHKLRDQVLKALYDVLAKESEHPPQSILHTAKAIESEMNKVNNCDTNEAAYKARYRIIYSNVISKNNPDLKHKIANGDITPEFLATCDAKDLAPAPLKQKIEEIAKQNLYNAQGATIERSVTDRFTCGKCKEKKVSYYQLQTRSADEPLTTFCTCEACGNRWKFS

calmodulin binding: identified
B3: Cmk2p: yeast calcium/calmodulin-dependent serine/threonine protein kinase (protein, UniProt P22517 1-447, looked up)
Calcium/calmodulin-dependent …: MPKESEVINSEFHVDVQDPERLNGHPVAKFINKLSGQPESYVNRTNYIFGRTLGAGSFGVVRQARKLSTNEDVAIKILLKKALQGNNVQLQMLYEELSILQKLSHPNIVSFKDWFESKDKFYIVTQLATGGELFDRILSRGKFTEVDAVEIIVQILGAVEYMHSKNVVHRDLKPENVLYVDKSENSPLVIADFGIAKQLKGEEDLIYKAAGSLGYVAPEVLTQDGHGKPCDIWSIGVITYTLLCGYSPFIAESVEGFMEECTASRYPVTFHMPYWDNISIDVKRFILKALRLNPADRPTATELLDDPWITSKRVETSNILPDVKKGFSLRKKLRDAIEIVKLNNRIKRLRNMYSLGDDGDNDIEENSLNESLLDGVTHSLDDLRLQSQKKGGELTEEQMKLKSALTKDAFVQIVKAATKNKHKVLAGEEEDDSKKTLHDDRESKSED
